Results as given in the supplement of paper PMC9170038.

Tested on: MS2 coat protein
Assay: apparent KD of MS2 coat protein; designed switch direction (-1 OFF switch, 1 ON switch): -1; higher = weaker reporter binding
Method in brief: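 Designed RNA switches with common flanks were made on Illumina chips by stalled E. coli RNA polymerase. Titration with SNAP-549-labelled MS2 coat protein doubled from 0.7 or 1.5 nM up to 3 µM. Apparent KD is each design's median over clusters after curve-fitting normalised fluorescence.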

[1] = input ligand: microRNA oligo, concentration not stated
[2] = Eterna round: R95, input ligand: microRNA oligo, concentration not stated
[3] = Eterna round: R95, input ligand: FMN 200 uM
[4] = Eterna round: R95, input ligand: none

Sequence | apparent KD of MS2 coat protein (input ligand: FMN 200 uM) | apparent KD of MS2 coat protein (input ligand: none) | apparent KD of MS2 coat protein [2] | other results
ACAUGAGGAUCACCCAUGUGACCACGAUGGCUGAUGUAGAGAUAGGAUAUGUGUGAAUAUCUAUCACAGAAGGAUCUUGACUGG [Deportation 53 - Jieux - Exclusion NG 3] (Eterna round: R96, puzzle: Exclusion NG 3) | 25.2 nM | 28.5 nM |  | apparent KD of MS2 coat protein [1]: 22.4 nM
UUAUAACAUGAGGAUCACCCAUGUUAGGAUAUCGCAGUAAGCUUCAGUAAUGAGCAUUCGAGAAGGAACGGGUA [Eternabot (L2) Solution 63] (Eterna round: R97, puzzle: Exclusion 1) | 22 nM | 22 nM |  | 
CAGUACUGAGGAUAUACAUGAGGAUCACCCAUGUGCUUUAGCUAGGAUACUAGCACUAGUAGAAGGCAGUACUG [Fiskers Ex 3 828 mod 10] (puzzle: Exclusion 3) |  |  | 12.3 nM | 
GUGCGGUGAGGAUAUACGUAGGUGAAAAUCUGUGUGUUCCUACAUGAGGAUCACCCAUGUAGAAGGCAUGGCAC [LRO-Excl2-13] (puzzle: Exclusion 2) |  |  | 90.5 nM | 
GGUGCGUAUGUGAGGAUAUGCUGGUCCUUGGAUCAGCAGAAGGCACAUGAGGAUCACCCAUGUGGUGUCGUACG [salish99_Bmod_Ex4_012] (puzzle: Brourd's mod of Exclusion 4) |  |  | 54.6 nM | 
AUCAUGGACGCAGGAUAUACAUGAGGAUCACCCAUGUAGUAUGAUCAGUGAUGGUCGUCGAUAGUGUAGAAGGGCGGCUAGUAG [random] (Eterna round: R96, puzzle: Exclusion NG 2) | 34.4 nM | 32.8 nM |  | apparent KD of MS2 coat protein [1]: 24.2 nM
UCCUAACAUGAGGAUCACCCAUGUGAGGAUAUGAUACUAUGUACUUCGGUACAUAGUAUCAGAAGGCACAUCCU [Ex1-3: 8] (puzzle: Exclusion 1) |  |  | 17.5 nM | 
UUUUAACAUGAGGAUCACCCAUGUGAGGAUAUCGUAAUUUUUAUUAAUAUUAAUAAAACGAGAAGGCACAUUUU [JMF 13] (puzzle: Exclusion 1) |  |  | 66.8 nM | 
AAGUACCGUCACGAUAGUGAUGGUACAACAAGCAUGUAAACAUGAGGAUCACCCAUGUCCUCAUAUGCUCGUCUUAU [Sensor 3 - 64] (puzzle: Sensor v3, turn-off variant 2) |  |  | 34.3 nM | apparent KD of MS2 coat protein [3]: 375 nM; apparent KD of MS2 coat protein [4]: 566 nM
AGGUGAGCCGUCAGGAUAUGCGUUCCGUAGGGUCAGCAGAAGGGACAUGAGGAUCACCCAUGUUUCGCACGUGG [Veraxedi] (puzzle: Brourd's mod of Exclusion 4) |  |  | 31 nM | 
UUUUAGAGAGGAUAUAUUAUGUGAAACAUGAGGAUCACCCAUGUAAUAUGAUGGAUGUAAAUAGAAGGCUCAUUUA [JL-ex5-3.06] (puzzle: Exclusion 5) |  |  | 48.3 nM | apparent KD of MS2 coat protein [3]: 34.6 nM; apparent KD of MS2 coat protein [4]: 58 nM
GAGUGCUUAGGAUAUACAUGAGGAUCACCCAUGUGCUUCAGCUAGGAGACUAGCAUUGGUAGAAGGGAGUACUC [Mod of lroppy 5 - Jieux - Exclusion 3] (Eterna round: R97, puzzle: Exclusion 3) | 24.2 nM | 14.9 nM |  | 
GAGUGACAUGAGGAUCACCCAUGUGAGGAUAUCGGACGGACCAAAUUAACAUCCGCCGCGAGAAGGCACAUCGG [Exclusion 1 V22] (puzzle: Exclusion 1) |  |  | 69.4 nM | 
CUGUACAUAGGAUAUAGUUGUUUUUACAUGAGGAUCACCCAUGUUACUCCUCUCUCUCUUCUAGAAGGAUGUUUUU [JR_E5_Sub007] (Eterna round: R96, puzzle: Exclusion 5) | 70.7 nM | 67 nM |  | apparent KD of MS2 coat protein [1]: 50.7 nM
AAGUAUAGAGGAUAUAGUAGUUACAACAUGAGGAUCACCCAUGUUCUUCAUAACGUAGUUCUAGAAGGCUGAUAAA [EX-5 Malc#28] (puzzle: Exclusion 5) |  |  | 172 nM | 
UAGGCACCUGCAGGAUAUUAGAGGCGCUUUCUGUAAGAAGGGCAGGUUCACAUGAGGAUCACCCAUGUAAAGAACAGCAUGGCA [Eternabot solution 24] (Eterna round: R96, puzzle: Exclusion NG 1) | 23.1 nM | 28.9 nM |  | apparent KD of MS2 coat protein [1]: 17.4 nM
GGUGCGUAUGUGAGGAUAUGCUGGUCCUUGGAUCAGCAGAAGGCACAUGAGGAUCACCCAUGUGGUGUCGUGCC [salish99_Bmod_Ex4_019] (puzzle: Brourd's mod of Exclusion 4) |  |  | 168 nM | 
GUACUGACAGGAUAUACAUGAGGAUCACCCAUGUGCCUUAGCGCUACAAAAGUAGCGCGUAGAAGGGUCUGUAC [Omei Ex3 Model Bachelor's Dilema v16] (Eterna round: R97, puzzle: Exclusion 3) | 22.4 nM | 14.7 nM |  | 

Sequence | apparent KD of MS2 coat protein (input ligand: FMN 200 uM) | apparent KD of MS2 coat protein (input ligand: none) | apparent KD of MS2 coat protein [2] | other results
AGGUGUAGAGGAUAUUCAUUCUUCCACAUGAGGAUCACCCAUGUCCCGGUCACCAGGGACGGAGAAGGCUACACCA [Omei Ex5 D26] (Eterna round: R97, puzzle: Exclusion 5) | 108 nM | 76.8 nM |  | 
AAAUUGGUAGAGGAUAUUGUACAGGAAACGGUGCGAGAAGGUUGCACAUGAGGAUCACCCAUGUUAAGUUGCGA [EX6 #46] (Eterna round: R97, puzzle: Exclusion 6) | 39.9 nM | 25.7 nM |  | 
GAACUGAAGCUUUGCUUUAGUCGUACAUGAGGAUCACCCAUGUAGGAUAUGGUAGGCUUUGCUUACUAGAAGGACAGAGUGAUC [Mat - Exclusion NG 3 - Mod of JL - D68] (Eterna round: R96, puzzle: Exclusion NG 3) | 61.8 nM | 113 nM |  | apparent KD of MS2 coat protein [1]: 73.8 nM
CCAGCUCGUGUUAGGAUAUCCAAGCUGCGGCUGGUGGAGAAGGGACAUGAGGAUCACCCAUGUAAUAAAGAAAA [On] (puzzle: Brourd's mod of Exclusion 4) |  |  | 21.4 nM | 
UUGUACCGGUGAGGAUAUUUUUAAUAGAGCUUUAUGAUAUACAUGAGGAUCACCCAUGUUACGUUGAAGAAGGCAUCGGAUUAU [JL JR Sub091 mod 5] (Eterna round: R96, puzzle: Exclusion NG 2) | 19.3 nM | 19.8 nM |  | apparent KD of MS2 coat protein [1]: 15.5 nM
ACUUAUAGAGGAUAUACAGAUUAUUACAUGAGGAUCACCCAUGUUCUUCAAUGUAUAUAUGUAGAAGGCUAAGGAA [JL-ex5-4.23 Malcolm mod] (Eterna round: R97, puzzle: Exclusion 5) | 381 nM | 82.2 nM |  | 
CUUGUAUAUCAGGAUAUGAUUUUAUAUAUUGGAUCAGAAGGGAUAACAUGAGGAUCACCCAUGUUGUGGAGUGA [JR_Ex6_Sub038] (Eterna round: R97, puzzle: Exclusion 6) | 90.5 nM | 204 nM |  | 
CUAAUAUAUCAGGAUAUGAUUAUAUGUGUUAGAUCAGAAGGGAUAACAUGAGGAUCACCCAUGUUGUGGAGUGA [JR_Ex6_Sub035] (Eterna round: R97, puzzle: Exclusion 6) | 67.3 nM | 64.2 nM |  | 
GUAAUGCUGCGAGGAUAUACAUGAGGAUCACCCAUGUGGAUGUCUGAGGCUUUGCCUCAGACGAUGUAGAAGGCGCAGUAAAAU [Mat - Exclusion NG 2 - Mod of JL - D53] (Eterna round: R96, puzzle: Exclusion NG 2) | 87.5 nM | 28.3 nM |  | apparent KD of MS2 coat protein [1]: 11.5 nM
UACAUGAGGAUCACCCAUGUUUUGUCGUGUAUGGUAUUUAUCUAGGAUAUCAAUUGAUUUAAUUAUGAGAAGGAGAAUAUUAAU [JMF's solution 61] (Eterna round: R96, puzzle: Exclusion NG 3) |  |  |  | apparent KD of MS2 coat protein [1]: 29.3 nM
GCGGACUGGAUCGUGAGAUCCGAGACAUGAGGAUCACCCAUGUAGGAUAUCGAUUGCUUUGCAGUCGAGAAGGGCGUGGUCCGC [JL denovo 16] (Eterna round: R96, puzzle: Exclusion NG 3) | 54.6 nM | 59.3 nM |  | apparent KD of MS2 coat protein [1]: 44.9 nM
UCGUAGUCAGGAUAUACAUGAGGAUCACCCAUGUAAAAUUUUAAUUUAAUUUUAAGGUGUAGAAGGGACCAUUU [Ex3 #21] (Eterna round: R97, puzzle: Exclusion 3) | 46.7 nM | 45.8 nM |  | 
UAUAUGUCAGGAUAUUAGUAGUGGAUGAAUAAGAUUAUUGCUGAGAAGGGACAUGAGGAUCACCCAUGUUCCUC [JR_Ex4_Sub002] (Eterna round: R97, puzzle: Exclusion 4) | 27.5 nM | 18.5 nM |  | 
GAGAAAUUAUAGGAUAUCGUAAGGAUAAUUUAACGAGAAGGAUGAACAUGAGGAUCACCCAUGUGGUAUCAUGG [JL-ex6-3.12] (puzzle: Exclusion 6) |  |  | 184 nM | apparent KD of MS2 coat protein [3]: 191 nM; apparent KD of MS2 coat protein [4]: 465 nM
GUUAAACAUGAGGAUCACCCAUGUAAGGAUAUGCUGCGGUCGCGCUGACGUGACUGCAGCAGAAGGUACAAUUG [Mat - Mod of JL D51] (puzzle: Exclusion 1) |  |  | 64.8 nM | 
GAGUGACAUGAGGAUCACCCAUGUGAGGAUAUCCGAUGGACCAAAUUAACAAUAGAAGGGAGAAGGCACAUAAA [Exclusion 1 V7] (puzzle: Exclusion 1) |  |  | 127 nM | apparent KD of MS2 coat protein [3]: 162 nM; apparent KD of MS2 coat protein [4]: 131 nM
AGUACUAACACGAAAGUGUUAGUACUAUAAGCUUGUGUAACAUGAGGAUCACCCAUGUCCUCAUAAGCUCGUCUUAU [Mat - Sensor v3 - Turn-off var 2 - D100] (puzzle: Sensor v3, turn-off variant 2) |  |  | 131 nM | apparent KD of MS2 coat protein [3]: 58.3 nM; apparent KD of MS2 coat protein [4]: 61.2 nM
UUGAUGUGAGGAUAUGUGAUCUGCCUUCUAUAUAGAUGAUUACAGAAGGCACAUGAGGAUCACCCAUGUAGAUC [Ex4 - 3 - 24] (puzzle: Exclusion 4) |  |  | 49.2 nM | 
